Assay results: paper PMC12889889

Target: FcγRIIIa (V158 variant)

Row | Substance | ADCC Reporter Bioassay (WIL2-S target cells, Jurkat/NFAT-luc + FcγRIIIa V158 effector cells), EC50 of luciferase induction
1 | Riabni (rituximab-arrx), lot 1141263, untreated (antibody) | 13.6 ng/mL
2 | Rituxan (rituximab), lot 3575428, untreated (antibody) | 9.3 ng/mL
3 | Ruxience (rituximab-pvvr), lot GN4445, untreated (antibody) | 6.06 ng/mL
4 | Truxima (rituximab-abbs), lot 1B1011, untreated (antibody) | 9.09 ng/mL
